Experimental data as given in article PMC6960285, “Unique Microbial Catabolic Pathway for the Human Core N-Glycan Constituent Fucosyl-α-1,6-N-Acetylglucosamine-Asparagine” (mBio, 2020).

Legend:
[1] = molecular target: His-tagged AsnA2, N(4)-(β-N-acetylglucosaminyl)-L-asparaginase (glycosylasparaginase) of Lactobacillus casei BL23 (Lactobacillus casei BL23); assay: SEC; size exclusion chromatography of purified His-tagged AsnA2 on a HiPrep 16/60 Sephacryl S-300 HR column, calibrated with five standard proteins; native molecular weight estimated
AlfC = molecular target: T1, AlfC (Lacticaseibacillus paracasei, UniProt A0A422MHI3); assay: transfucosylation, product by HPLC and NMR; assay type: biochemical; conditions: acceptor, 100 mM; donor 50 mM pNP-fuc; 100 mM Tris-HCl pH 7.0, 42°C
T1 construct: gene BN194_28780; 6xHis-AlfC from E. coli DH10B with pQEalfC, purified as earlier published
T1 sequence (A0A422MHI3 1-344): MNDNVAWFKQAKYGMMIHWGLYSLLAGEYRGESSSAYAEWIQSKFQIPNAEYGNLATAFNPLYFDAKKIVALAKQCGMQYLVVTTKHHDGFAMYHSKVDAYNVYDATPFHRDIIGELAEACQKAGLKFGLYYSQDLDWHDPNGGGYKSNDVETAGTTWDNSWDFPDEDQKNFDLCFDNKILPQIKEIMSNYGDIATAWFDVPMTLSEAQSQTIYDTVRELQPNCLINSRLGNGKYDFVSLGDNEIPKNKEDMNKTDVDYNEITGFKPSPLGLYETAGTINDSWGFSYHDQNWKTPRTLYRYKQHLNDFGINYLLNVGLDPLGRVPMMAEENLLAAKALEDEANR

stoichiometry N [1] | Compound | transfucosylation, product by HPLC and NMR (AlfC)
2 | His-tagged AsnA2, N(4)-(β-N-acetylglucosaminyl)-L-asparaginase (glycosylasparaginase) of Lactobacillus casei BL23 (enzyme) | 
 | CC(=O)N[C@@H]1[C@@H](O)[C@H](O)[C@@H](CO)O[C@H]1NC(=O)C[C@H](N)C(=O)O [GlcNAc-Asn] | the ability of AlfC to use GlcNAc-Asn as the acceptor was tested
